# Laboratory results taken from US7144576.
# Molecular target: bovine transducin (UniProt P04695)
# Sequence (P04695 2-350): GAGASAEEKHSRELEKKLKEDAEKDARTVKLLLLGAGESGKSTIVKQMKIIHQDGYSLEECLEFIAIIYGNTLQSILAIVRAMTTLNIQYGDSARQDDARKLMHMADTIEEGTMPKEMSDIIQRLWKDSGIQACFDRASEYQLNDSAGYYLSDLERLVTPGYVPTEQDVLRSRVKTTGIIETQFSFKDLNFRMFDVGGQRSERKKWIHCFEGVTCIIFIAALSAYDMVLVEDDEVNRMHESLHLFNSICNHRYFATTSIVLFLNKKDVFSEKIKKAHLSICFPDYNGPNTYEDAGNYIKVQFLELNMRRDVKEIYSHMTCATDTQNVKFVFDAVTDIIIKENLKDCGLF
substance,measurement,value
recombinant S1 protein of native sequence from pPTXS1/1,"ADP-ribosyltransferase activity (autoradiogram of SDS-PAGE, [32P]NAD)",The radioactive band at 39 Kd is the transducin subunit which has been ribosylated
